Assay results reported in PMC3743106 (Extremophiles : life under extreme conditions, 2013).
Values joined by “and” are separate entries in the source; they are usually repeats but may differ in a detail not shown here. Equal entries are not always repeated.

Experiments:
[1] = molecular target: Thermococcus kodakarensis replication factor C large subunit (Thermococcus kodakarensis) (UniProt Q5JHP1); experiment: SEC
[2] = molecular target: the molecule itself; experiment: SEC

Chain of Thermococcus kodakarensis replication factor C large subunit (Thermococcus kodakarensis) (Q5JHP1 whole entry): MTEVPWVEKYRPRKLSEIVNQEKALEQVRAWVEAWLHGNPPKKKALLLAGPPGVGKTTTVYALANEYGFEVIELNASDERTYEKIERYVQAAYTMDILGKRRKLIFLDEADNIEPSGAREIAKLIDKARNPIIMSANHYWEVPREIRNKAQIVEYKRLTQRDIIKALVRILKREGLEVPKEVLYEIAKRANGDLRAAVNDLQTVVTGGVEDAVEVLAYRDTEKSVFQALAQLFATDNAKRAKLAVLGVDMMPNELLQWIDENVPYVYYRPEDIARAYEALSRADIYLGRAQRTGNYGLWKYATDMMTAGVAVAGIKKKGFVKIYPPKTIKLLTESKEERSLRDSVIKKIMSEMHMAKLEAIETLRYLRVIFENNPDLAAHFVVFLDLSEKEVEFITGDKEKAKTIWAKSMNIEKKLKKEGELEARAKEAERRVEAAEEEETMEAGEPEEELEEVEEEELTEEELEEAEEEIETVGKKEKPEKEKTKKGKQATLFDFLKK

stoichiometry N [1] | Molecule | stoichiometry N [2]
4 | Thermococcus kodakarensis replication factor C small subunit (natural protein) | 
 | Thermococcus kodakarensis PCNA2 (proliferating cell nuclear antigen 2, encoded by TK0582) (natural protein, UniProt Q5JFD3 1-253, looked up) MTFEIVFDSAREFESLIATLEKFFDEAVFQVNMEGIQMRAIDPSRVVLVDLNLPEMLFSKYSVESEEAIAFDLKRFLKVLKLARSRDTLVLRKGGENFLEVGLLGDENTWFKLPLIDANTPEIEIPSLPWTVKAVVLAGALKRAVKAAKLVSDSIYFMATPEKLTFKAEGNDSEVRTVLTMEDPGLLDLEHKMTKAKSAYGVAYLEDILRSLADADEVIIRFGFDIPLLLKYMVRDAGEVSFLIAPRVEEGRS | 3 and 6
 | Thermococcus kodakarensis PCNA1 (proliferating cell nuclear antigen 1, encoded by TK0535) (natural protein, UniProt Q5JF32 1-249, looked up) MPFEVVFDGAKEFADLIATASNLIDEAAFKFTEEGISMRAMDPSRVVLIDLNLPESIFSKYEVEEPETIGINMDQFKKILKRGKAKDTLILRKGDENFLEITFEGTAKRTFRLPLIDVEELELELPELPFTAKVVLLGEVLKEGIKDASLVSDAIKFIAKENEFTMKAEGETNEVEIRLTLEDEGLLDLEVEEETKSAYGIRYLSDMVKGIGKADEVILRFGNEMPLQMEYMIRDEGRLTFLLAPRVEE | 2 and 3
